According to PMC10055998:
Read-outs that look alike come from different tables or passages of the source.

Experiments:
[1] = biological target: SV2C, the BoNT/A protein receptor, rat (rat (endogenous in primary rat spinal cord cells)) (UniProt Q9Z2I6)
[2] = biological target: SV2C, the BoNT/A protein receptor, human (human (endogenous in hiPSC-derived motor neurons)) (UniProt Q496J9)
[3] = biological target: SV2C, the BoNT/A protein receptor, rat (rat (endogenous in primary rat spinal cord cells)) (UniProt Q9Z2I6); remark: listed apart in the source

Chain of UniProt Q9Z2I6 (Q9Z2I6 whole entry): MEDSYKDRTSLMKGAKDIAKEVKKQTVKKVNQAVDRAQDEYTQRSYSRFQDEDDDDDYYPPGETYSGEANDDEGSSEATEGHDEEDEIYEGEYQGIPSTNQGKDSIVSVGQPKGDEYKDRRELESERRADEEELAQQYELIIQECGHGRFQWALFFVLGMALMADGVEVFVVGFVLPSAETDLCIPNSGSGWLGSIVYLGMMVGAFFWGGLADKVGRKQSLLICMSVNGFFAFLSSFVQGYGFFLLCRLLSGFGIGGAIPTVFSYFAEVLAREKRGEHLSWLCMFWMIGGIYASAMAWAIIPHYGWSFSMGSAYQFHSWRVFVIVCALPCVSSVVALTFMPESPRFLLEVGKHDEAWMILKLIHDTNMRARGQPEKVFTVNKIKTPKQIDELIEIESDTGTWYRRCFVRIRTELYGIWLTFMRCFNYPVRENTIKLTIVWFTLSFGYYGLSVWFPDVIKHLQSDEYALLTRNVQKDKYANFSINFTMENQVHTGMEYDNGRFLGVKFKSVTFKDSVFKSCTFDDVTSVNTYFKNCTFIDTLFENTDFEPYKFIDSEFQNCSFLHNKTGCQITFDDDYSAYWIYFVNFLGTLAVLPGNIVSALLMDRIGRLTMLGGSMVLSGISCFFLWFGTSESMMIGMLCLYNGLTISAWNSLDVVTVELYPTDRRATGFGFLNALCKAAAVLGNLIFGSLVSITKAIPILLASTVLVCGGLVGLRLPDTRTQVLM
Chain of UniProt Q496J9 (Q496J9 whole entry): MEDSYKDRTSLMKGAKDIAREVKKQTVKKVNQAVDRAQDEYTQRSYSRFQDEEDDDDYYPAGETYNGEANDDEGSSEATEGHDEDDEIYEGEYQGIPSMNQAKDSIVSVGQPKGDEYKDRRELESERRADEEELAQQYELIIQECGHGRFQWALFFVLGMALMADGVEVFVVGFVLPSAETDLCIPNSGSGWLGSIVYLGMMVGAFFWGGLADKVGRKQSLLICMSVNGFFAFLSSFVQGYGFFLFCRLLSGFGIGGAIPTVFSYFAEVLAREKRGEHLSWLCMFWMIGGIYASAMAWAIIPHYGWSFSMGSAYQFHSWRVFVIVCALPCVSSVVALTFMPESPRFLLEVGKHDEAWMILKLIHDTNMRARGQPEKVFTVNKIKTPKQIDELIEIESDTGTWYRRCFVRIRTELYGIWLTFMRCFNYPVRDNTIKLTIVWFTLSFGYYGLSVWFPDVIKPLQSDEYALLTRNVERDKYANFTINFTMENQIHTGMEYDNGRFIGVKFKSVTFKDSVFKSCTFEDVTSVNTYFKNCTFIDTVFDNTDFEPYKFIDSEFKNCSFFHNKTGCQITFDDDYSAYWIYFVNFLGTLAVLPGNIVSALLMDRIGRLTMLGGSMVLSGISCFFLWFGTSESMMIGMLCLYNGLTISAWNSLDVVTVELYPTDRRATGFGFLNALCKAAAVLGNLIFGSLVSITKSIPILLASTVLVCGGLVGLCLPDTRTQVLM

“Botulinum neurotoxin subtype A1 (BoNT/A1), 150-kDa holotoxin (from UniProt P0DPI0) (natural protein)” was tested, and the EC50 RSC (SNAP-25 cleavage in primary rat spinal cord cells, 48 h) [1] was 1.1 pg/Well, the EC50 MN (SNAP-25 cleavage in hiPSC derived motor neurons, 48 h) [2] was 0.07 pg/Well and the EC50 RSC (SNAP-25 cleavage in primary rat spinal cord cells, 48 h) [3] was 1 pg/Well.
